Experimental data: patent US20230192897A1 (NUMAB THERAPEUTICS, published 2023)

Legend:
[1] = target: T1, CD137 on Jurkat NFkB reporter cells (human, UniProt Q07011 24-255); assay: cell-based or functional assay
[2] = target: T2, biotinylated human PDL1 (human, UniProt Q9NZQ7 19-238, limits assumed, biotinylated); assay: competition ELISA PD-1/PDL1
T2 construct: also called biotinylated PDL1

[3] = target: T1, CD137 on Jurkat NFkB reporter cells; assay: cell-based or functional assay; remark: listed apart in the source
[4] = target: T1, CD137 on Jurkat NFkB reporter cells; assay: cell-based or functional assay; remark: listed apart in the source
[5] = target: T3, mouse CD137-Fc chimeric protein (mouse, UniProt P20334 24-187, limits assumed); assay: SPR
T3 sequence (looked up): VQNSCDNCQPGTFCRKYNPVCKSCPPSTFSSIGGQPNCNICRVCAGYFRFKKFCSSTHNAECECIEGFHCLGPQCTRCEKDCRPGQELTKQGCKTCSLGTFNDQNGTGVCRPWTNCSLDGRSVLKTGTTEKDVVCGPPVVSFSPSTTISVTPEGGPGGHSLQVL
In short: (§1)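 Kinetics were fitted with a one-to-one Langmuir model to give apparent ka, kd and KD. Binders at 0.12-90 nM (three-fold series) flowed 3 min, with 10 min dissociation and 3 M MgCl₂ regeneration, on a Biacore T200.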

[6] = target: T4, Fc tagged human PDL1 (human, UniProt Q9NZQ7 19-239); assay: SPR
T4 construct: Bought (Sino Biological, cat. 10084-H02H); captured on the SPR chip; also called PDL1-Fc chimeric protein
In short: as §1

[7] = target: T5, Fc tagged human CD137 (human, UniProt Q07011 24-186); assay: SPR
T5 construct: also called CD137-Fc chimeric protein
In short: as §1

[8] = target: human PDL1 on cells (human, UniProt Q9NZQ7 19-290); assay: cell-based or functional assay
[9] = target: T1, CD137 on Jurkat NFkB reporter cells; assay: cell-based or functional assay; remark: listed apart in the source

- EC50, NFkB reporter, HCC827 without IFNg [1]: 6.97 ng/mL
- Top of curve fit, NFkB reporter, HCC827 without IFNg [1]: 135
- IC50 [2]: 1.28 ng/mL
- rel. IC50 (IC50 avelumab/IC50 test) [2]: 1.59 fold
- EC50, NFkB reporter, CHO-PDL1 [3]: 6 ng/mL
- Top of curve fit, NFkB reporter, CHO-PDL1 [3]: 242
- IC50 (ng/ml), NFkB reporter, CHO-PD-L1 [4]: 6 ng/mL
- IC50 (ng/ml), NFkB reporter, HCC827 + IFNg [4]: 5.48 ng/mL
- IC50 (ng/ml), NFkB reporter, HCC827 - IFNg [4]: 6.97 ng/mL
- max. activation (%), NFkB reporter, CHO-PD-L1 [4]: 242%
- max. activation (%), NFkB reporter, HCC827 + IFNg [4]: 208%
- max. activation (%), NFkB reporter, HCC827 - IFNg [4]: 135%
- rel. IC50 (urelumab/test), NFkB reporter, CHO-PD-L1 [4]: 14.4 fold
- rel. IC50 (urelumab/test), NFkB reporter, HCC827 + IFNg [4]: 19.7 fold
- rel. IC50 (urelumab/test), NFkB reporter, HCC827 - IFNg [4]: 16 fold
- binding result [5]: no binding
- Kd [6]: ≤ 0.0035 nM
- fold improvement in affinity against PRO885 (CDR graft) [6]: 20 fold
- koff [6]: < 1e-05 s⁻¹
- Kd [7]: 3.5 nM
- koff [7]: 0.00075 s⁻¹
- kon [7]: 210000 M⁻¹ s⁻¹
- IC50, NFAT reporter gene assay [8]: 48.1 ng/mL
- EC50, NFkB reporter, HCC827 with IFNg [9]: 5.48 ng/mL
- Top of curve fit, NFkB reporter, HCC827 with IFNg [9]: 208
B1: PRO1126 (bispecific antibody)
chain: DFQLTQSPSSLSASVGDRVTITCQASQSINDYLAWYQQKPGKSPKLLIYKASTLASGVPSRFSGSGSGTDFTLTISSLQPEDFATYYCQQGYIITDIDNVFGTGTKVTVLGGGGGSQVQLQESGPGLVKPSETLSLTCKVSGFSFSNSYWICWIRQPPGKGLEWIGCTFVGSSDSTYYANWAKGRVTISVDSSKNQFSLKLSSVTAADTAVYYCARHPSDAVYGYANNLWGQGTLVTVSSGGGGSGGGGSGGGGSGGGGSIQMTQSPSSLSASVGDRVTITCQASQSINNVLAWYQQKPGKAPKLLIYRASTLASGVPSRFSGSGSGTDFTLTISSLQPEDFATYYCQSSYGNYGDFGTGTKVTVLGGGGGSQSQLQESGPGLVKPSETLSLTCKASGFSFSSGYDMCWVRQPPGKGLEWIACVVAGSVDITYYASWAKGRVTISKDSSKNQVSLKLSSVTAADTAVYFCARKDAYSDAFNLWGQGTLVTVSS
notes: scDb; also called 38-02-A04 sc01 scDb-i/33-03-G02 sc03 Full scDb-o
